Test results: article PMC8899823 (Science translational medicine, 2022)

What was measured:
SARS-CoV-2 RBD = SARS-CoV-2 RBD (SARS-CoV-2, UniProt P0DTC2); assay: ELISA
[1] = molecular target: bat RsSHC014 spike protein (Bat SARS-like coronavirus RsSHC014, UniProt U5WLK5); assay: ELISA

B1: DH1047 IgG (antibody, V domains shown)
VH: QVQLVQSGAEVKKPGASVQVSCQASANTFTNHYIHWVRQAPGQGLEWMGIIYPTGGNTIYAQGFQGRVTMTRDTSLNTIYLELSSLRSEDTAVYYCARDVRVDDSWSGYDLLSGGTYFDYWGQGTLVTVSS
VL: not shown
B1: binds (SARS-CoV-2 RBD); binds [1].
